How the values were obtained:
[1] = target: ALK5-Flag (transforming growth factor-β receptor 1, TGFBR1) (UniProt P36897)
[2] = target: ALK5-Flag (transforming growth factor-β receptor 1, TGFBR1) (UniProt P36897); remark: listed apart in the source

UniProt P36897, sequence (P36897 34-503): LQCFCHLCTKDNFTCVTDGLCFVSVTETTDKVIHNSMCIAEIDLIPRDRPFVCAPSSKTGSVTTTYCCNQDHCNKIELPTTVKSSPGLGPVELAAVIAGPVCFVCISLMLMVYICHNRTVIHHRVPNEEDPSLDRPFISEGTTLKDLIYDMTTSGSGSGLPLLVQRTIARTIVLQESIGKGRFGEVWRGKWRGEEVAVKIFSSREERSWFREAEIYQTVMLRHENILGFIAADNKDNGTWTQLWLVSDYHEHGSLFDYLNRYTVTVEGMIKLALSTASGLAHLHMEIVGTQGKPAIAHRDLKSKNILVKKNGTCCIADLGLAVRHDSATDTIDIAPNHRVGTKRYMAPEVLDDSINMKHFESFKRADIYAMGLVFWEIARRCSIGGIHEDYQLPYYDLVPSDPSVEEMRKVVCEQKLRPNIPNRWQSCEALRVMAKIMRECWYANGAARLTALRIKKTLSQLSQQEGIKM

Q: “LumC13C-A peptide (LumC13 with the cysteine substituted with alanine)” was tested. Which rate constant 1 of healing of scratched HTCE cells, LumC13C-A peptide [1] did it give?
A: 5.1 Δ%/h

Q: And the rate constant 2 of healing of scratched HTCE cells, LumC13C-A peptide [1]?
A: 13.9 Δ%/h

Q: What does the source list for “GST-Lum (recombinant GST-lumican fusion protein) (from UniProt P51885 19-338) (natural protein)”?
A: rate constant 1 of healing of scratched HTCE cells, GST-Lum with the ALK5 inhibitor SB431542 (10 µM); monophasic, no rate constant 2 [2]: 1.89 Δ%/h; rate constant 1 of healing of scratched HTCE cells, GST-Lum in basic medium [1]: 5.37 Δ%/h; rate constant 2 of healing of scratched HTCE cells, GST-Lum in basic medium [1]: 14.8 Δ%/h

Q: Which rate constant 1 of healing of scratched HTCE cells, LumC13 peptide [1] does the source give for “LumC13 peptide (the last C-terminal 13 amino acids of Lum)” here?
A: 4.62 Δ%/h

Q: And the rate constant 2 of healing of scratched HTCE cells, LumC13 peptide [1]?
A: 13.5 Δ%/h

Q: Which rate constant 1 of healing of scratched HTCE cells, GST-LumC50 in basic medium [1] does the source give for “GST-LumC50 (GST fusion with the C-terminal 50 amino acids of Lum) (domain or fragment)” here?
A: 5.35 Δ%/h

Q: What about the rate constant 2 of healing of scratched HTCE cells, GST-LumC50 in basic medium [1] of the same substance?
A: 14 Δ%/h

— article PMC3867403
